Assay results published in US20260151494A1 (ARO BIOTHERAPEUTICS, published 2026).

What was measured:
[1] = target: T1, human CD71 extracellular domain (human, UniProt P02786 89-760, biotinylated); experiment: primary ELISA, RLU over HSA
T1 construct: also called hCD71; CD71-ECD

[2] = target: T2, apical domain of human CD71 (human, UniProt P02786 189-383, limits assumed); experiment: primary ELISA, RLU over HSA
T2 construct: domain: apical domain; Screen 4 panned on human apical domains, the ELISA text says only 'apical domain'
T2 sequence (P02786 189-383 limits assumed): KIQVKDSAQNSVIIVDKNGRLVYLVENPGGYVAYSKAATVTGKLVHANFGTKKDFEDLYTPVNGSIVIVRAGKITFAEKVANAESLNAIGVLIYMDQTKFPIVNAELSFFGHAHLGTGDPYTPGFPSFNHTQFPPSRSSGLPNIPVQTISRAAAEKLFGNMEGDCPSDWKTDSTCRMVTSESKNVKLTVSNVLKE

[3] = target: T1, human CD71 extracellular domain; experiment: primary ELISA; further: test concentration or dose not given here
[4] = target: T2, apical domain of human CD71; experiment: primary ELISA; further: test concentration or dose not given here

T1 sequence (P02786 89-760): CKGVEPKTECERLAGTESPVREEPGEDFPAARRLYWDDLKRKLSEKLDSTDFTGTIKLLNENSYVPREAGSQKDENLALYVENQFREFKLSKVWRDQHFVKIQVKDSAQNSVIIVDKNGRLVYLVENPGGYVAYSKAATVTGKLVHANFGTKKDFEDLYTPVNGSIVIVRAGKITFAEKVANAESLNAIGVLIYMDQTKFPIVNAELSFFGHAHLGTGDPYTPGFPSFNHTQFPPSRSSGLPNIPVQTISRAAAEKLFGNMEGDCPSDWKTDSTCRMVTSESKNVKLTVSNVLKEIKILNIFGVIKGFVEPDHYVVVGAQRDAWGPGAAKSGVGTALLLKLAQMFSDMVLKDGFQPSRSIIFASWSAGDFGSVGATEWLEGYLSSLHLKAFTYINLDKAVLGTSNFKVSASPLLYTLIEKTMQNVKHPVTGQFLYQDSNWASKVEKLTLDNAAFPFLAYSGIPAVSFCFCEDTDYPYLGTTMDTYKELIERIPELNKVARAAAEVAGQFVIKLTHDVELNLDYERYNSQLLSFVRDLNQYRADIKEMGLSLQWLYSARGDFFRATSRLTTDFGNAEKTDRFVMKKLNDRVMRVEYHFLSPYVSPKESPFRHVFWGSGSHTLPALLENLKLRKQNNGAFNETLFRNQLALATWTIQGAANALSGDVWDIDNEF

| Binder | hCD71:HSA [1] | Apical domain:HSA [2] | RLU [3] [RLU] | RLU [4] [RLU] |
| --- | --- | --- | --- | --- |
| CD71-binding FN3 domain of SEQ ID NO: 455 (designed binder) MLPAPKNLVVSRVTEDSARLSWTAPDAAFDSFTISYPEEAKHGEAIVLTVPGSERSYDLTGLKPGTEYGVPINGVKGGVSSLPLSAIFTT | 55 | 171 | 1.56e+06 | 4.83e+06 |
| CD71-binding FN3 domain of SEQ ID NO: 466 (designed binder) MLPAPKNLVVSRVTEDSARLSWTAPDAAFDSFYIAYAEPRPDGEAIWLLVPGSERSYDLTGLKPGTEYSVLIHGVKGGLLSSPLSADFTT | 70 | 279 | 1.08e+06 | 4.3e+06 |
| CD71-binding FN3 domain of SEQ ID NO: 471 (designed binder) MLPAPKNLVVSRVTEDSARLSWTAPDAAFDSFTIWYYESPTGGEAIVLTVPGSERSYDLTGLKPGTEYMVFIQGVKGGCFSTPLYAIFTT | 42 | 98 | 1.65e+06 | 3.88e+06 |
| CD71-binding FN3 domain of SEQ ID NO: 480 (designed binder) MLPAPKNLVVSRVTEDSARLSWTAPDAAFDSFEIDYAEDIREGEAIALVVPGSERSYDLTGLKPGTEYWVSIGGVKGGTWSRPLFAPFTT | 70 | 181 | 1.66e+06 | 4.27e+06 |
| CD71-binding FN3 domain of SEQ ID NO: 509 (designed binder) MLPAPKNLVVSRVTEDSARLSWTAPDAAFDSFEIGYWENAYKGEAIVLTVPGSERSYDLTGLKPGTEYEVFIGGVKGGVWSVPLSAIFTT | 134 | 353 | 1.74e+06 | 4.6e+06 |
| CD71-binding FN3 domain of SEQ ID NO: 503 (designed binder) MLPAPKNLVVSRVTEDSARLSWTAPDAAFDSFEISYFETSWHGEAIVLTVLGSERSYDLTGLKPGTEYRVYIGGVKGGSWSQPLSAIFTT | 150 | 145 | 2.35e+06 | 2.26e+06 |
| CD71-binding FN3 domain of SEQ ID NO: 488 (designed binder) MLPAPKNLVVSRVTEDSARLSWTAPDAAFDSFIIQYGEYLRWGEAIVLTVPGSERSYDLTGLKPGTEYQVEIYGVKGGPLSKPLSAIFTT | 53 | 103 | 3.18e+06 | 6.14e+06 |
| CD71-binding FN3 domain of SEQ ID NO: 495 (designed binder) MLPAPKNLVVSRVTEDSARLSWTAPDAAFDSFFINYREDKWIGEAIVLTVPGSERSYDLTGLKPGTEYSVPIDGVKGGAASPPLSAIFTT | 142 | 504 | 1.14e+06 | 4.03e+06 |
| CD71-binding FN3 domain of SEQ ID NO: 468 (designed binder) MLPAPKNLVVSRVTEDSARLSWTAPDAAFDSFLIQYDEEGVWGEAIVLTVPGSERSYDLTGLKPGTEYSVGIGGVKGGWSSVPLSAIFTT | 71 | 24 | 1.05e+06 | 3.58e+06 |
| CD71-binding FN3 domain of SEQ ID NO: 489 (designed binder) MLAPKNLVVSRVTEDSARLSWTAPDAAFDSFFIGYLEPQPPGEAISLLVPGSERSYDLTGLKPGTEYNVTIQGVKGGFPSSPLLAGFTT | 235 | 340 | 2.81e+06 | 4.06e+06 |
| CD71-binding FN3 domain of SEQ ID NO: 477 (designed binder) MLPAPKNLVVSRVTEDSARLSWTAPDAAFDSFEIAYFETCRTGEAIVLTVPGSERSYDLTGLKPGTEYGVSIYGVKGGAHSGPLSAIFTT | 289 | 370 | 1.88e+06 | 2.4e+06 |
| CD71-binding FN3 domain of SEQ ID NO: 458 (designed binder) MLPAPKNLVVSRVTEDSARLSWTAPDAAFDSFLDLLPSNWDIAGEAIVLTVPGSERSYDLTGLKPGTEYHVNILGVKGGKESLPLVANFTT | 51 | 69 | 3.44e+06 | 4.64e+06 |
| CD71-binding FN3 domain of SEQ ID NO: 463 (designed binder) MLPAPKNLVVSRVTEDSARLSWTAPDAAFDSFLILYIEQDHRGEAIVLTVPGSERSYDLTGLKPGTEYWVHITGVKGGYYSAPLSAIFTT | 91 | 89 | 5.62e+06 | 5.51e+06 |
| CD71-binding FN3 domain of SEQ ID NO: 484 (designed binder) MLPAPKNLVVSRVTEDSARLSWTAPDAAFDSFEIAYQELSLWGEAIVLTVPGSERSYDLTGLKPGTEYYVHIGGVKGGIWSSPLSAISTT | 35 | 113 | 1.47e+06 | 4.69e+06 |

Other lines, results leading:

| hCD71:HSA [1] | Apical domain:HSA [2] | RLU [3] [RLU] | RLU [4] [RLU] | Binder |
| --- | --- | --- | --- | --- |
| 362 | 285 | 4.29e+06 | 3.38e+06 | CD71-binding FN3 domain of SEQ ID NO: 535 (designed binder) MLPAPKNLVVSRVTEDSARLSWTAPDAAFDSFFIGYLEPQPPGEAIHLQVPGSERSYDLTGLKPGTEYNVTIQGVKGGFPSDPLVAKFTT |
| 185 | 164 | 5.57e+06 | 4.93e+06 | CD71-binding FN3 domain of SEQ ID NO: 538 (designed binder) MLPAPKNLVVSRVTEDSARLSWTAPDAAFDSFFIGYLEPQPPGEAIDLYVPGSERSYDLTGLKPGTEYNVTIQGVKGGFPSHPLVAVFTT |
| 327 | 327 | 4.22e+06 | 4.22e+06 | CD71-binding FN3 domain of SEQ ID NO: 545 (designed binder) MLPAPKNLVVSRVTEDSARLSWTAPDAAFDSFFIGYLEPQPPGEAISLVVPGSERSYDLTGLKPGTEYNVTIQGVKGGFPSNPLIATFTT |
| 73 | 140 | 1.79e+06 | 3.42e+06 | CD71-binding FN3 domain of SEQ ID NO: 541 (designed binder) MLPAPKNLVVSRVTEDSARLSWTAPDAAFDSFFIGYLEPQPPGEAIDLWVPGSERSYDLTGLKPGTEYNVTIQGVKGGFPSMPLDAYFTT |
| 169 | 237 | 2.13e+06 | 3e+06 | CD71-binding FN3 domain of SEQ ID NO: 542 (designed binder) MLPAPKNLVVSRVTEDSARLSWTAPDAAFDSFFIGYLEPQPPGEAIELFVPGSERSYDLTGLKPGTEYNVTIQGVKGGFPSMPLSAIFTT |
| 241 | 243 | 4.04e+06 | 4.07e+06 | CD71-binding FN3 domain of SEQ ID NO: 544 (designed binder) MLPAPKNLVVSRVTEDSARLSWTAPDAAFDSFFIGYLEPQPPGEAIALLVPGSERSYDLTGLKPGTEYNVTIQGVKGGFPSHPLSASFTT |
| 167 | 205 | 4.94e+06 | 6.08e+06 | CD71-binding FN3 domain of SEQ ID NO: 539 (designed binder) MLPAPKNLVVSRVTEDSARLSWTAPDAAFDSFFIGYLEPQPPGEAIHLFVPGSERSYDLTGLKPGTEYNVTIQGVKGGFPSDPLHAAFTT |
| 207 | 182 | 5.29e+06 | 4.65e+06 | CD71-binding FN3 domain of SEQ ID NO: 543 (designed binder) MLPAPKNLVVSRVTEDSARLSWTAPDAAFDSFFIGYLEPQPPGEAISLYVPGSERSYDLTGLKPGTEYNVTIQGVKGGFPSIPLVAVFTT |
| 198 | 306 | 3.79e+06 | 5.85e+06 | CD71-binding FN3 domain of SEQ ID NO: 540 (designed binder) MLPAPKNLVVSRVTEDSARLSWTAPDAAFDSFYIAYAEPRPDGEAIILVVPGSERSYDLTGLKPGTEYSVLIHGVKGGLLSSPLDAGFTT |
| 39 | 112 | 1.64e+06 | 4.74e+06 | CD71-binding FN3 domain of SEQ ID NO: 506 (designed binder) MLPAPKNLVVSRVTEDSARLSWTAPDAAFDSFEIGYWENAYKGEAIVLTVPGSERSYDLTGLKPGTEYVVFIGGVKGGVWSVPLSAISTT |
| 226 | 586 | 1.6e+06 | 4.16e+06 | CD71-binding FN3 domain of SEQ ID NO: 531 (designed binder) MLPAPKNLVVSRVTEDSARLSWTAPDAAFDSFEIGYFEYSYYGEAIVLTVPGSERSYDLTGLKPGTEYRVYIGGVKGGGWSRPLSAIFTT |
| 23 | 50 | 2.42e+06 | 5.14e+06 | CD71-binding FN3 domain of SEQ ID NO: 537 (designed binder) MLPAPKNLVVSRVTEDSARLSWTAPDAAFDSFEIGYFENLYLGEAIVLTVPGSERSYDLTGLKPGTEYWVQIGGVKGGNWSAPLSAIFTT |
| 62 | 197 | 1.45e+06 | 4.59e+06 | CD71-binding FN3 domain of SEQ ID NO: 532 (designed binder) MLPAPKNLVVSRVTEDSARLSWTAPDAAFDSFDINYDELSGEGEAIALFVPGSERSYDLTGLKPGTEYWVSIGGVKGGRFSEPLYARFTT |
| 263 | 404 | 3.39e+06 | 5.21e+06 | CD71-binding FN3 domain of SEQ ID NO: 510 (designed binder) MLPAPKNLVVSRVTEDSARLSWTAPDAAFDSFFIAYGESPESGEAIVLTVPGSERSYDLTGLKPGTEYLVWIAGVKGGYYSDPLSAIFTT |
| 156 | 253 | 3.24e+06 | 5.24e+06 | CD71-binding FN3 domain of SEQ ID NO: 519 (designed binder) MLPAPKNLVVSRVTEDSARLSWTAPDAAFDSFPIAYPEHLPPGEAIVLTVPGSERSYDLTGLKPGTEYPVNIRGVKGGFVSFPLSAIFTT |
